# Data: paper PMC9512702 (2022)
# Like-named read-outs stand apart in the source and are kept apart here.
# Experiments:
# [1] = target: T1, mammalian expressed RBD (mRBD) of SARS-CoV-2 spike (SARS-CoV-2, UniProt P0DTC2 319-541); test: SPR
# [2] = target: T1, mammalian expressed RBD (mRBD) of …; test: SPR; remark: listed apart in the source
Binder,koff [1] [s⁻¹],koff [2] [s⁻¹]
DKEWILQKIYEAMRLLDELADAEASMRVSDAIYEFMKK (designed binder) [SIH-14],0.00028,–
DKEWILQKIYEEMRLLDELADAEASMRVSDEIYEFMKK (designed binder) [SIH-15],–,0.00025
